T1: Fused in sarcoma (FUS) wildtype with N-terminal GFP tag, P35637
T1 chain: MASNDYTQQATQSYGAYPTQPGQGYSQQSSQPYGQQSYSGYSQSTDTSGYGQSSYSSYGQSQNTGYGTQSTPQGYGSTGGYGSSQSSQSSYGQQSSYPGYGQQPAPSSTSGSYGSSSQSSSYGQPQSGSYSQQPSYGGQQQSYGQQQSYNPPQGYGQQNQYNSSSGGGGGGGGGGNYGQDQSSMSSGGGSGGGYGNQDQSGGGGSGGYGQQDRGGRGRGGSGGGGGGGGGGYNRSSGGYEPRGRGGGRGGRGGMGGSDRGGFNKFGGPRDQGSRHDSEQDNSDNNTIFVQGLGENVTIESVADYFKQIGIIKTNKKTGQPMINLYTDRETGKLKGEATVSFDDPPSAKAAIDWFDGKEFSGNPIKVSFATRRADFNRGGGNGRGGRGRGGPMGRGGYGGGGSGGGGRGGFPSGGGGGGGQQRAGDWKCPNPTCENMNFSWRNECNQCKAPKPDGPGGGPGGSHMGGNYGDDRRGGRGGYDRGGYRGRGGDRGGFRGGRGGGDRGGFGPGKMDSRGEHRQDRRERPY


Experiments:
[1] = target: GFP only (eGFP expressed from the pcDNA3.1(+)-N-eGFP backbone without gene insertion); test: single-molecule pull-down (SiMPull) with GFP photobleaching step counting; diluted NP40 lysate (1:100-1:10,000 in T50: 10 mM Tris-Cl pH 8.0, 50 mM NaCl) of transfected SH-SY5Y cells flowed over a PEG/neutravidin surface with biotinylated anti-GFP antibody; 488 nm TIRF, room temperature; photobleaching steps counted per spot; 30% dimers subtracted for GFP self-dimerisation; cells without or with 0.4 M sorbitol 4 h (also arsenite) before lysis
[2] = target: T1, Fused in sarcoma (FUS) wildtype with …; test: single-molecule pull-down (SiMPull) with GFP photobleaching step counting; diluted NP40 lysate (1:100-1:10,000 in T50: 10 mM Tris-Cl pH 8.0, 50 mM NaCl) of transfected SH-SY5Y cells flowed over a PEG/neutravidin surface with biotinylated anti-GFP antibody; 488 nm TIRF, room temperature; photobleaching steps counted per spot; 30% dimers subtracted for GFP self-dimerisation; cells without or with 0.4 M sorbitol 4 h …; conditions: remark: other sources report otherwise

Molecule	percent dimers [1]	percent monomers [1]	average photobleaching step (after subtracting the GFP self-dimer fraction) [2]	increase in average photobleaching steps with sorbitol stress [2]
GFP only (eGFP expressed from the pcDNA3.1(+)-N-eGFP backbone without gene insertion)	30%	70%	–	–
Fused in sarcoma (FUS) wildtype with N-terminal GFP tag, P35637 1-526 (natural protein) MASNDYTQQATQSYGAYPTQPGQGYSQQSSQPYGQQSYSGYSQSTDTSGYGQSSYSSYGQSQNTGYGTQSTPQGYGSTGGYGSSQSSQSSYGQQSSYPGYGQQPAPSSTSGSYGSSSQSSSYGQPQSGSYSQQPSYGGQQQSYGQQQSYNPPQGYGQQNQYNSSSGGGGGGGGGGNYGQDQSSMSSGGGSGGGYGNQDQSGGGGSGGYGQQDRGGRGRGGSGGGGGGGGGGYNRSSGGYEPRGRGGGRGGRGGMGGSDRGGFNKFGGPRDQGSRHDSEQDNSDNNTIFVQGLGENVTIESVADYFKQIGIIKTNKKTGQPMINLYTDRETGKLKGEATVSFDDPPSAKAAIDWFDGKEFSGNPIKVSFATRRADFNRGGGNGRGGRGRGGPMGRGGYGGGGSGGGGRGGFPSGGGGGGGQQRAGDWKCPNPTCENMNFSWRNECNQCKAPKPDGPGGGPGGSHMGGNYGDDRRGGRGGYDRGGYRGRGGDRGGFRGGRGGGDRGGFGPGKMDSRGEHRQDRRERPY	–	–	1.5 steps	0.5 steps
